Experimental data reported in patent US20120225049.

Experiments:
[1] = target: Assembled ternary SNARE complex (syntaxin1A 1-263 : SNAP25 : VAMP2 1-96) (UniProt P32851)
[2] = test system: Native guinea pig VAMP2 in isolated pancreatic zymogen granules
[3] = target: K85A-R86S-K87A mutant rat VAMP2 cytoplasmic portion 1-96 (UniProt P63045)
[4] = test system: Native guinea pig VAMP8 in isolated pancreatic zymogen granules
[5] = target: Recombinant wild type rat SNAP25 full length 1-206 (UniProt P60881)
[6] = target: T1, Recombinant human VAMP8 (endobrevin) cytoplasmic portion 1-74 (UniProt Q9BV40)
T1 sequence: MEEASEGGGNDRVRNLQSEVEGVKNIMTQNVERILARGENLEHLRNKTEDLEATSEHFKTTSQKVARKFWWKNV

Chain of Assembled ternary SNARE complex (syntaxin1A 1-263 : SNAP25 : VAMP2 1-96) (P32851 whole entry, looked up, tested part not stated, one chain of several): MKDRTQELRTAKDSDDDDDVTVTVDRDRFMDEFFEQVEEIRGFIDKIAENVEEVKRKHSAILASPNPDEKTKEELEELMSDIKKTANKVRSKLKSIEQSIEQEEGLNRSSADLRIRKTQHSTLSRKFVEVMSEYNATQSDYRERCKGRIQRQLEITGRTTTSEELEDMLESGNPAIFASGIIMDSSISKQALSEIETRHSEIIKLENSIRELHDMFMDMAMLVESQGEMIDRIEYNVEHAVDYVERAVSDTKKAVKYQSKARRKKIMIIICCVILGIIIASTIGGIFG
Chain of K85A-R86S-K87A mutant rat VAMP2 cytoplasmic portion 1-96 (P63045 1-96 K85A/R86S/K87A): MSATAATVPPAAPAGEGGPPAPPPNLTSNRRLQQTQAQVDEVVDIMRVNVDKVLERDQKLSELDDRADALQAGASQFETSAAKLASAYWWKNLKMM
Chain of Recombinant wild type rat SNAP25 full length 1-206 (P60881 whole entry, looked up, tested part not stated): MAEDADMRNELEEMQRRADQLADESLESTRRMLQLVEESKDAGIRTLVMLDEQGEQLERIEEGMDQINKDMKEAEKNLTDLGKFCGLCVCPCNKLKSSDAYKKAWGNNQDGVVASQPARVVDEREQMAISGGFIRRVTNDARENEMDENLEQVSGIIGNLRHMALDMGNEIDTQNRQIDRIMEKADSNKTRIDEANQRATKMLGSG

**Q.** For “Fraction ν of Tityus serrulatus venom (Fx ν metalloprotease)”, which “proteolytic cleavage (PAGE staining density, 60 min)” value [1] is on record?
**A.** a clear change in staining density indicating the occurrence of cleavage by Fx ν of both the assembled complex (not boiled, lane 3) and the unassembled SNARE complex proteins (boiled, lane 4)

**Q.** And the “proteolytic cleavage (Western blot of isolated zymogen granules)” value [2]?
**A.** whole TSV or Fx ν rapidly cleave VAMP2 (upper panel) even in short incubation periods (5 and 30 min)

**Q.** What about the “proteolytic cleavage (PAGE, reverse phase chromatography, sequencing)” value [3] of the same substance?
**A.** these substitutions prevented the previously observed cleavage

**Q.** And the “proteolytic cleavage (Western blot of isolated zymogen granules)” value [4]?
**A.** VAMP8 is also a proteolytic target in ZG during incubation with Fx ν

**Q.** What about the “proteolytic cleavage (transblot)” value [5] of the same substance?
**A.** is a t-SNARE that is also cleaved by Fx ν

**Q.** And the “proteolytic cleavage (transblot, mass spectrometry)” value [6]?
**A.** is cleaved upon exposure to Fx ν
